Target: T1, artificial PA28-nanopore
T1 construct: also called PA-nanopore; PA nanopore
Experiment: single-channel electrical recording in a planar lipid bilayer, 1 M NaCl

B1: 20S proteasome from Thermoplasma acidophilum (enzyme)
chain 1: MQQGQMAYDRAITVFSPDGRLFQVEYAREAVKKGSTALGMKFANGVLLISDKKVRSRLIEQNSIEKIQLIDDYVAAVTSGLVADARVLVDFARISAQQEKVTYGSLVNIENLVKRVADQMQQYTQYGGVRPYGVSLIFAGIDQIGPRLFDCDPAGTINEYKATAIGSGKDAVVSFLEREYKENLPEKEAVTLGIKALKSSLEEGEELKAPEIASITVGNKYRIYDQEEVKKFL
chain 2: TTTVGITLKDAVIMATERRVTMENFIMHKNGKKLFQIDTYTGMTIAGLVGDAQVLVRYMKAELELYRLQRRVNMPIEAVATLLSNMLNQVKYMPYMVQLLVGGIDTAPHVFSIDAAGGSVEDIYASTGSGSPFVYGVLESQYSEKMTVDEGVDLVIRAISAAKQRDSASGGMIDVAVITRKDGYVQLPTDQIESRIRKLGLIL
notes: also called the proteasome; T. acidophilum proteasome
binding result: no binding
